Measurements reported in article PMC11988671, “SIRT7 Is a Lysine Deacylase with a Preference for Depropionylation and Demyristoylation” (International Journal of Molecular Sciences, 2025).
“And” between values parts separate entries of the source, which are not always exact repeats. Identical values can stand only once.

Columns and labels:
[1] = substrate: NC(=O)c1ccc[n+]([C@@H]2O[C@H](COP(=O)([O-])OP(=O)(O)OC[C@H]3O[C@@H](n4cnc5c(N)ncnc54)[C@H](O)[C@@H]3O)[C@@H](O)[C@H]2O)c1; assay: Enzyme kinetics with variable NAD^+ (in vitro deacetylation, Michaelis-Menten), SIRT1; type: biochemical, mouse; details: other: SIRT1 with the H3K9Ac peptide
Procedure: (§1) In the case of the SIRT1 enzymatic reaction, 8 µM peptide was incubated in 50 µL reaction buffer containing 10 mM NaCl, 10 mM KCl, 20 mM Tris-HCl pH 8.0, 1.0 mM NAD^+, and 1 mM DTT, with or without 1 µg recombinant SIRT1. The reaction mixtures were incubated for 24 h for SIRT7 or 2 h for SIRT1 at 37 °C.
(§2) For enzyme kinetics with variable concentrations of the NAD^+ substrate, an in vitro deacylation assay was performed using wild-type SIRT7 and SIRT1 with serial dilutions of the NAD^+ substrate. The reaction was incubated at 37 °C for the appropriate time, which was within the linear part of the progression curve (60 min for SIRT7 and 10 min for SIRT1). […] Each enzymatic assay was conducted in triplicate, and the resulting data were plotted and fitted to the Michaelis–Menten equation using GraphPad Prism version 8.0.2 (GraphPad Software, Boston, MA, USA).
(§3) The general conditions for electrospray ionization-MS were as follows: nebulizer gas, N2, delivered at 50 psi; nebulizer gas temperature, 250 °C; capillary voltage, 3500 V; and collision gas, G1 grade N2 (Taiyo Nippon Sanso Corporation, Tokyo, Japan).

[2] = substrate: NC(=O)c1ccc[n+]([C@@H]2O[C@H](COP(=O)([O-])OP(=O)(O)OC[C@H]3O[C@@H](n4cnc5c(N)ncnc54)[C@H](O)[C@@H]3O)[C@@H](O)[C@H]2O)c1; assay: Enzyme kinetics with variable NAD^+ (in vitro deacylation, Michaelis-Menten), SIRT7 in presence of RNA; type: biochemical, mouse; details: for Km: in the presence of RNA; for kcat: NAD^+-dependent deacylation
Procedure: as §1, §2, §3

B1: SIRT1 (Mus musculus) (protein)
chain: MADEVALALQAAGSPSAAAAMEAASQPADEPLRKRPRRDGPGLGRSPGEPSAAVAPAAAGCEAASAAAPAALWREAAGAAASAEREAPATAVAGDGDNGSGLRREPRAADDFDDDEGEEEDEAAAAAAAAAIGYRDNLLLTDGLLTNGFHSCESDDDDRTSHASSSDWTPRPRIGPYTFVQQHLMIGTDPRTILKDLLPETIPPPELDDMTLWQIVINILSEPPKRKKRKDINTIEDAVKLLQECKKIIVLTGAGVSVSCGIPDFRSRDGIYARLAVDFPDLPDPQAMFDIEYFRKDPRPFFKFAKEIYPGQFQPSLCHKFIALSDKEGKLLRNYTQNIDTLEQVAGIQRILQCHGSFATASCLICKYKVDCEAVRGDIFNQVVPRCPRCPADEPLAIMKPEIVFFGENLPEQFHRAMKYDKDEVDLLIVIGSSLKVRPVALIPSSIPHEVPQILINREPLPHLHFDVELLGDCDVIINELCHRLGGEYAKLCCNPVKLSEITEKPPRPQKELVHLSELPPTPLHISEDSSSPERTVPQDSSVIATLVDQATNNNVNDLEVSESSCVEEKPQEVQTSRNVENINVENPDFKAVGSSTADKNERTSVAETVRKCWPNRLAKEQISKRLEGNQYLFVPPNRYIFHGAEVYSDSEDDVLSSSSCGSNSDSGTCQSPSLEEPLEDESEIEEFYNGLEDDTERPECAGGSGFGADGGDQEVVNEAIATRQELTDVNYPSDKS
notes: HaloTag (N, cleaved yes); made in house; host or cells: E. coli K12 KRX
Question: With B1 as the protein, how does the Km [1] read?
Answer: The Km was 14 µM.

B2: SIRT7 (Mus musculus) (protein)
chain: MAAGGGLSRSERKAAERVRRLREEQQRERLRQVSRILRKAAAERSAEEGRLLAESEDLVTELQGRSRRREGLKRRQEEVCDDPEELRRKVRELAGAVRSARHLVVYTGAGISTAASIPDYRGPNGVWTLLQKGRPVSAADLSEAEPTLTHMSITRLHEQKLVQHVVSQNCDGLHLRSGLPRTAISELHGNMYIEVCTSCIPNREYVRVFDVTERTALHRHLTGRTCHKCGTQLRDTIVHFGERGTLGQPLNWEAATEAASKADTILCLGSSLKVLKKYPRLWCMTKPPSRRPKLYIVNLQWTPKDDWAALKLHGKCDDVMQLLMNELGLEIPVYNRWQDPIFSLATPLRAGEEGSHSRKSLCRSREEAPPGDQSDPLASAPPILGGWFGRGCAKRAKRKKVA
notes: as for B1
Question: Which results are given for B2?
Answer: kcat/Km ([2]; other: acetyl H3K18 peptide): 0.844 ± 0.024 M⁻¹ s⁻¹; Km ([2]; other: acetyl H3K18 peptide (H3K18Ac)): 445.3 ± 28.5 µM; kcat ([2]; other: acetyl H3K18 peptide): 0.000376 ± 1.52e-05 s⁻¹; kcat/Km ([2]; other: butyryl H3K18 peptide): 2.10 ± 0.061 M⁻¹ s⁻¹; kcat ([2]; other: butyryl H3K18 peptide): 0.00143 ± 0.00015 s⁻¹; Km ([2]; other: butyryl H3K18 peptide): 678.6 ± 83.6 µM; kcat/Km ([2]; other: myristoyl H3K18 peptide): 11.9 ± 0.695 M⁻¹ s⁻¹; kcat ([2]; other: myristoyl H3K18 peptide): 0.00183 ± 8.23e-05 s⁻¹; Km ([2]; other: myristoyl H3K18 peptide): 153 µM and 153.2 ± 8.8 µM; kcat/Km ([2]; other: octanoyl H3K18 peptide): 3.74 ± 0.124 M⁻¹ s⁻¹; kcat ([2]; other: octanoyl H3K18 peptide): 0.00176 ± 6.48e-05 s⁻¹; Km ([2]; other: octanoyl H3K18 peptide): 470.0 ± 16.7 µM; kcat/Km ([2]; other: palmitoyl H3K18 peptide): 2.35 ± 0.224 M⁻¹ s⁻¹; kcat ([2]; other: palmitoyl H3K18 peptide): 0.00149 ± 0.000101 s⁻¹; Km ([2]; other: palmitoyl H3K18 peptide): 633 µM and 633.5 ± 37.5 µM; kcat/Km ([2]; other: propionyl H3K18 peptide): 10.9 ± 0.633 M⁻¹ s⁻¹; kcat ([2]; other: propionyl H3K18 peptide): 0.00202 ± 4.14e-05 s⁻¹; Km ([2]; other: propionyl H3K18 peptide): 185.1 ± 7.6 µM; kcat/Km ([2]; other: succinyl H3K18 peptide): 2.01 ± 0.390 M⁻¹ s⁻¹; kcat ([2]; other: succinyl H3K18 peptide): 0.000224 ± 1.68e-05 s⁻¹; Km ([2]; other: succinyl H3K18 peptide): 114 µM and 114.9 ± 30.4 µM
